Assays:
带His标签的NKp44蛋白 = biological target: T1, 带His标签的NKp44蛋白 (human, UniProt O95944 22-190, limits assumed); assay: ELISA, His-tagged protein coated at 1 μg/ml, anti-human IgG Fc-HRP
T1 construct: also called 人NKp44; not shown: His tag
T1 sequence (looked up): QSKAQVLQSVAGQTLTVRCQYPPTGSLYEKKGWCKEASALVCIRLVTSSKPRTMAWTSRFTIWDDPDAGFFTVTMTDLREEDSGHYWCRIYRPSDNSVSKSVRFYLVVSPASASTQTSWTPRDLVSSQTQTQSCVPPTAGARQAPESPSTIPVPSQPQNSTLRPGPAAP

带His标签的NKp30蛋白 = biological target: T2, 带His标签的NKp30蛋白 (human, UniProt O14931 19-138, limits assumed); assay: as above
T2 construct: also called 人NKp30; not shown: His tag
T2 sequence (looked up): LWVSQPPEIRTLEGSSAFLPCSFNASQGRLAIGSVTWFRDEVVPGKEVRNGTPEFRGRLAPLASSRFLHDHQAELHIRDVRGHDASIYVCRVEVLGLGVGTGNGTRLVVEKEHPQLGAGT

B1: NKp46-1 (antibody, V domains shown)
VH: QVQLVQSGAEVKKPGSSVKVSCKASGGTFSNYGISWVRQAPGQGLEWIGRIIPYFGITNYAQKFQGRVTITADKSTSTAYMELSSLRSEDTAVYYCADNHLLRPGQNYYPWDYWGQGTTVTVSS
VL: DIQMTQSPSSLSASVGDRVTITCRASQGISNALAWYQQKPGKAPKLLIYAASRLESGVPSRFSGSGSGTDFTLTISSLQPEDFATYYCQQHYSTPPTFGQGTKVEIK
notes: Lead antibody from a human common light chain phage library; also called Ab-1; 孔A5
B1: no binding (tested: 10μg/ml) (带His标签的NKp44蛋白); no binding (tested: 10μg/ml) (带His标签的NKp30蛋白).
